Measured values published in PMC11098746 (2024).
No end group written: not given here.

Each binder was assayed against Circumsporozoite protein (CSP) (Plasmodium falciparum (isolate 3D7), UniProt Q7K740) (assay: AVEXIS screen signal:noise (double-corrected)).

Row | Binder | binding score
1 | ADP142 (protein, bait human Fc-tagged dimer) MGLGARGAWAALLLGTLQVLALLGAAHESAAMAASANIENSGLPHNSSANSTETLQHVPSDHTNETSNSTVKPPTSVASDSSNTTVTTMKPTAASNTTTPGMVSTNMTSTTLKSTPKTTSVSQNTSQISTSTMTVTHNSSVTSAASSVTITTTMHSEAKKGSKFDTGS | 0.7
2 | ADP285 (protein, bait human Fc-tagged dimer) LTQGYNNWTNGLYGYSWDMMVHSRSHQHVKITYRDGRTGELGYLNPGVFTQSRRWKDHADMLKQYATCLSRLLPKYNVTEPQIYFDIWVSINDRFQQRIFDPRVDIVQAAWSPFQRTSWVQPLLMDLSPWRAKLQEIKSSLDNHTEVVFIADFPGLHLENFVSEDLGNTSIQLLQGEVTVELVAEQKNQTLREGEKMQLPAGEYHKVYTTSPSPSCYMYVYVNTTELALEQDLAYLQELKEKVENGSETGPLPPELQPLLEGEVKGGPEPTPLVQTFLRRQQRLQEIERRRNTPFHERFFRFLLRKLYVFRRSFLMTCISLRNLILGRPSLEQLAQEVTYANLRPFEAVGELNPSNTDSSHSNPPESNPDPVHSEF | 0.774
3 | ADP152 (protein, bait human Fc-tagged dimer) MAPSSPRPALPALLVLLGALFPGPGNAQTSVSPSKVILPRGGSVLVTCSTSCDQPKLLGIETPLPKKELLLPGNNRKVYELSNVQEDSQPMCYSNCPDGQSTAKTFLTVYWTPERVELAPLPSWQPVGKNLTLRCQVEGGAPRANLTVVLLRGEKELKREPAVGEPAEVTTTVLVRRDHHGANFSCRTELDLRPQGLELFENTSAPYQLQTFVLPATPPQLVSPRVLEVDTQGTVVCSLDGLFPVSEAQVHLALGDQRLNPTVTYGNDSFSAKASVSVTAEDEGTQRLTCAVILGNQSQETLQTVTIYSFPAPNVILTKPEVSEGTEVTVKCEAHPRAKVTLNGVPAQPLGPRAQLLLKATPEDNGRSFSCSATLEVAGQLIHKNQTRELRVLYGPRLDERDCPGNWTWPENSQQTPMCQAWGNPLPELKCLKDGTFPLPIGESVTVTRDLEGTYLCRARSTQGEVTRKVTVNVLSP | 1.23
4 | ADP287 (protein, also: human Fc-tagged dimer) MANPGLGLLLALGLPFLLARWGRAWGQIQTTSANENSTVLPSSTSSSSDGNLRPEAITA | 1.47
5 | ADP313 (protein, bait human Fc-tagged dimer) MAHLHHSCLCFRSWLPAMLAVLLSLAPSASSDISASRPNILLLMADDLGIGDIGCYGNNTMRTPNIDRLAEDGVKLTQHISAASLCTPSRAAFLTGRYPVRSGMVSSIGYRVLQWTGASGGLPTNETTFAKILKEKGYATGLIGKWHLGLNCESASDHCHHPLHHGFDHFYGMPFSLMGDCARWELSEKRVNLEQKLNFLFQVLALVALTLVAGKLTHLIPVSWMPVIWSALSAVLLLASSYFVGALIVHADCFLMRNHTITEQPMCFQRTTPLILQEVASFLKRNKHGPFLLFVSFLHVHIPLITMENFLGKSLHGLYGDNVEEMDWMVGRILDTLDVEGLSNSTLIYFTSDHGGSLENQLGNTQYGGWNGIYKGGKGMGGWEGGIRVPGIFRWPGVLPAGRVIGEPTSLMDVFPTVVRLAGGEVPQDRVIDGQDLLPLLLGTAQHSDHEFLMHYCERFLHAARWHQRDRGTMWKVHFVTPVFQPEGAGACYGRKVCPCFGEKVVHHDPPLLFDLSRDPSETHILTPASEPVFYQVMERVQQAVWEHQRTLSPVPLQLDRLGNIWRPWLQPCCGPFPLCWCLREDDPQ | 0.959
6 | ADP382 (protein, bait human Fc-tagged dimer) TYDDGICKSSDCIKSAARLIQNMDATTEPCTDFFKYACGGWLKRNVIPETSSRYGNFDILRDELEVVLKDVLQEPKTEDIVAVQKAKALYRSCINESAIDSRGGEPLLKLLPDIYGWPVATENWEQKYGASWTAEKAIAQLNSKYGKKVLINLFVGTDDKNSVNHVIHIDQPRLGLPSRDYYECTGIYKEACTAYVDFMISVARLIRQEERLPIDENQLALEMNKVMELEKEIANATAKPEDRNDPMLLYNKMTLAQIQNNFSLEINGKPFSWLNFTNEIMSTVNISITNEEDVVVYAPEYLTKLKPILTKYSARDLQNLMSWRFIMDLVSSLSRTYKESRNAFRKALYGTTSETATWRRCANYVNGNMENAVGRLYVEAAFAGESKHVVEDLIAQIREVFIQTLDDLTWMDAETKKRAEEKALAIKERIGYPDDIVSNDNKLNNEYLELNYKEDEYFENIIQNLKFSQSKQLKKLREKVDKDEWISGAAVVNAFYSSGRNQIVFPAGILQPPFFSAQQSNSLNYGGIGMVIGHEITHGFDDNGRNFNKDGDLVDWWTQQSASNFKEQSQCMVYQYGNFSWDLAGGQHLNGINTLGENIADNGGLGQAYRAYQNYIKKNGEEKLLPGLDLNHKQLFFLNFAQVWCGTYRPEYAVNSIKTDVHSPGNFRIIGTLQNSAEFSEAFHCRKNSYMNPEKKCRVW | 0.577
7 | ADP362 (protein, bait human Fc-tagged dimer) MARAALWLWLCALALSLQPALPQIVATNLPPEDQDGSGDDSDNFSGSGAGALQDITLSQQTPSTWKDTQLLTAIPTSPEPTGLEATAASTSTLPAGEGPKEGEAVVLPEVEPGLTAREQEATPRPRETTQLPTTHLASTTTATTAQEPATSHPHRDMQPGHHETSTPAGPSQADLHTPHTEDGGPSATERAAEDGASSQLPAAEGSGEQDFTFETSGENTAVVAVEPDRRNQSPVDQGATGASQGLLDRKEVLG | 0.594
8 | ADP309 (protein, bait human Fc-tagged dimer) MEAPAAGLFLLLLLGTWAPAPGSASSEAPPLINEDVKRTVDLSSHLAKVTAEVVLAHLGGGSTSRATSFLLALEPELEARLAHLGVQVKGEDEEENNLEVRETKIKGKSGRFFTVKLPVALDPGAKISVIVETVYTHVLHPYPTQITQSEKQFVVFEGNHYFYSPYPTKTQTMRVKLASRNVESYTKLGNPTRSEDLLDYGPFRDVPAYSQDTFKVHYENNSPFLTITSMTRVIEVSHWGNIAVEENVDLKHTGAVLKGPFSRYDYQRQPDSGISSIRSFKTILPAAAQDVYYRDEIGNVSTSHLLILDDSVEMEIRPRFPLFGGWKTHYIVGYNLPSYEYLYNLGDQYALKMRFVDHVFDEQVIDSLTVKIILPEGAKNIEIDSPYEISRAPDELHYTYLDTFGRPVIVAYKKNLVEQHIQDIVVHYTFNKVLMLQE | 1.06
9 | ADP097 (protein, bait human Fc-tagged dimer) SPPRKREEAAAVPAAAPDDLALLKNLRSEEQKKKNRKKLSEKPKPNGRTVEVAEGEAVRTPQSVTAKQPPEIDKKNEKSKKNKKKSKSDAKAVQNSSRHDGKEVDEGAWETKISHREKRQQRKRDKVLTDSGSLDSTIPGIENTITVTTEQLTTASFPVGSKKNKGDSHLNVQVSNFKSGKGDSTLQVSSGLNENLTVNGGGWNEKSVKLSSQISAGEEKWNSVSPASAGKRKTEPSAWSQDTGDANTNGKDWGRSWSDRSIFSGIGSTAEPVSQSTTSDYQWDVSRNQPYIDDEWSGLNGLSSADPNSDWNAPAEEWGNWVDEERASLLKSQEPIPDDQKVSDDDKEKGEGALPTGKSKKKKKKKKKQGEDNSTAQDTEELEKEIREDLPVNTSKTRPKQEKAFSLKTISTSDPAEVLVKNSQPIKTLPPATSTEPSVILSKSDSDKSSSQVPPILQETDKSKSNTKQNSVPPSQTKSETSWESPKQIKKKKKARRET | 1.17
10 | ADP148 (protein, bait human Fc-tagged dimer) MASWIGAVILPLLGLLLSLPAGADVKARSCGEVRQAYGAKGFSLADIPYQEIAGEHLRICPQEYTCCTTEMEDKLSQQSKLEFENLVEETSHFVRTTFVSRHKKFDEFFRELLENAEKSLNDMFVRTYGMLYMQNSEVFQDLFTELKRYYTGGNVNLEEMLNDFWARLLERMFQLINPQYHFSEDYLECVSKYTDQLKPFGDVPRKLKIQVTRAFIAARTFVQGLTVGREVANRVSKVSPTPGCIRALMKMLYCPYCRGLPTVRPCNNYCLNVMKGCLANQADLDTEWNLFIDAMLLVAERLEGPFNIESVMDPIDVKISEAIMNMQENSMQVSAKVFQGCGQPKPAPALRSARSAPENFNTRFRPYNPEERPTTAAGTSLDRLVTDIKEKLKLSKKVWSALPYTICKDESVTAGTSNEEECWNGHSKARYLPEIMNDGLTNQINNPEVDVDITRPDTFIRQQIMALRVMTNKLKNAYNGNDVNFQDTSDESSGSGSGSGCMDDVCPTEFEFVTTEAPAVDPDRREVDSS | 0.913
